# Measurements from paper PMC3894786 (Cell, 2012).
# B1: Renilla luciferase-tagged HSP90β (natural protein)
# chain: not shown
# Key:
# Assay in all cases: LUMIER with BACON
# [1] = target: CDK6 (human, UniProt Q00534 1-326)
# [2] = target: LCK (human, UniProt P06239 1-509)
# [3] = target: STK38 (human, UniProt Q15208 1-465)
# [4] = target: FGFR3 (human, UniProt P22607 23-806)
# Chain of FGFR3 (P22607 23-806): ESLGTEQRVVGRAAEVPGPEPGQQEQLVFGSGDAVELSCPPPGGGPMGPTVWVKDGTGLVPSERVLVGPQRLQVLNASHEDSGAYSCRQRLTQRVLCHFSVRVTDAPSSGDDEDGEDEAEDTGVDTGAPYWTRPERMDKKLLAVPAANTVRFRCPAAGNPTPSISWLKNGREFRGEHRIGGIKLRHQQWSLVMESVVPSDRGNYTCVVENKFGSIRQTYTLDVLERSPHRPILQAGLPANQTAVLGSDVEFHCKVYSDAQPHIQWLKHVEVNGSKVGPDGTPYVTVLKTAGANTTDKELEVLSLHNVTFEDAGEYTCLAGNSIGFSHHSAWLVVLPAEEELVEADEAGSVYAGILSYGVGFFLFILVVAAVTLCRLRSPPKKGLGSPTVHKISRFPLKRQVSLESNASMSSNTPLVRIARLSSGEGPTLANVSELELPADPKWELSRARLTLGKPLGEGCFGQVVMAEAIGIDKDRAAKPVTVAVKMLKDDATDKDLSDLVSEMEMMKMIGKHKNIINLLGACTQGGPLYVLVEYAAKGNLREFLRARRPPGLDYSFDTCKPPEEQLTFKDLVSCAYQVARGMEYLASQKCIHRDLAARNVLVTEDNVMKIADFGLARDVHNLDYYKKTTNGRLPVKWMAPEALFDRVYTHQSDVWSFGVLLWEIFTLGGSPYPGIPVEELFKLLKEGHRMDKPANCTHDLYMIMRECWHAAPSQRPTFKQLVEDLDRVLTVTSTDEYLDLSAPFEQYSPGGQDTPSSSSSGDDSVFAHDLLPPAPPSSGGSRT
# Chain of CDK6 (Q00534 whole entry): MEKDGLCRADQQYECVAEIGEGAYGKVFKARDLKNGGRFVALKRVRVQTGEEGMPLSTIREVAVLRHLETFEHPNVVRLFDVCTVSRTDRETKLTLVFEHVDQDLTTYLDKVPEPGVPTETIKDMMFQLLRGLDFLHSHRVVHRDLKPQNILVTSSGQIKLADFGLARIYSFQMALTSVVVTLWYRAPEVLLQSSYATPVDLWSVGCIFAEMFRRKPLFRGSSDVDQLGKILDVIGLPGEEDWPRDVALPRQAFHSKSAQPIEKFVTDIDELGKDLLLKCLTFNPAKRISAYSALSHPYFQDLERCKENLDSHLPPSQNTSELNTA
# Chain of STK38 (Q15208 whole entry): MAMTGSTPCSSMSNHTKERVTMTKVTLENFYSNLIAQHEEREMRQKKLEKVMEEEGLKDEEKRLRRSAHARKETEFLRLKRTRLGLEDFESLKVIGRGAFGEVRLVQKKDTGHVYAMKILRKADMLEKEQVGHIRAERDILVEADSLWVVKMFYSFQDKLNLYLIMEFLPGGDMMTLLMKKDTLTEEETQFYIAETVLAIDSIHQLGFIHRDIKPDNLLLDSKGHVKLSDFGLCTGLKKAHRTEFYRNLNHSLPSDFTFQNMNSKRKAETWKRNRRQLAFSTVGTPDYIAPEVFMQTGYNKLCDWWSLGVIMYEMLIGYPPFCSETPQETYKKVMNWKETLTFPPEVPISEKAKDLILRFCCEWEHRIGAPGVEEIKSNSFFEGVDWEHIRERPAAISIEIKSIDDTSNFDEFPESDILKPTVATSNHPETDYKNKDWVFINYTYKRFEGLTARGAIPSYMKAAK
# Chain of LCK (P06239 whole entry): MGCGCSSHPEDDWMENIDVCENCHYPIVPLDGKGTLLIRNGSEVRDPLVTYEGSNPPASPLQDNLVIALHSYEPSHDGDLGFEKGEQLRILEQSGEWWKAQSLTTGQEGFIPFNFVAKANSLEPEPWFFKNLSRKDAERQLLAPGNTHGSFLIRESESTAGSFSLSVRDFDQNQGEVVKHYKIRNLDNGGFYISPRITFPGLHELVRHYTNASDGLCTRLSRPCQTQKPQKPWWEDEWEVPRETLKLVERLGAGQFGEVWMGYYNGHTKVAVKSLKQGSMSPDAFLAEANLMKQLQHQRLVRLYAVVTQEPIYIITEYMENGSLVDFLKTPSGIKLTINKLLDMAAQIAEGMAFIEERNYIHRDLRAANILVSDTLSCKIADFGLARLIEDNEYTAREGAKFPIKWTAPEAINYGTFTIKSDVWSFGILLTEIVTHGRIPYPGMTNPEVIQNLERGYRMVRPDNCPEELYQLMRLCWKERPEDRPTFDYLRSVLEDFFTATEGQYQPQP
binder,measurement,setting,value
B1,half-life of dissociation after 500 nM ganetespib,[1],~3 min
same,half-life of dissociation after 500 nM ganetespib,[2],~3 min
same,half-life of dissociation after 500 nM ganetespib,[3],~3 min
same,half-life of dissociation after 500 nM ganetespib,[4],29 min
